Test results taken from patent US20220356245A1 (FORTY SEVEN, published 2022).
Positions count from the first letter of the chain named. Each block holds one binder with its values, some of them ahead of it.

What was measured:
[1] = target: T1, hu-sCD47-6His; extracellular domain of human CD47 antigen with 6His-tag (human); assay: SPR Biacore T200, antibody captured, hCD47-his analyte;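 note: antibodies captured on anti-IgG (Fc) CM5 chip, five sequential 10 min antigen injections at rising concentrations, reference flow cell and antigen-free cycle as controls, 1:1 model fit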
T1 construct: also called hCD47-his; soluble hCD47

[2] = target: T2, human CD47 (hCD47) expressed on cells (human, UniProt Q08722 19-323); assay: flow cytometry, Raji cells
T2 construct: Transfected CHO cells or endogenous CD47 of human cells; also called CHO-hCD47; CD47 on Raji cells
Method: Raji cells (ATCC-CLL-86; 2×10⁵ cells/well of 96-well plate) were first incubated at +4° C. for 30 minutes with serial dilutions of anti-CD47 antibodies or control isotype antibody (in mIgG2a or mIgG1 format). The cells were then washed and incubated for 30 minutes at +4° C. with a PE-conjugated F(ab)′2 goat anti-mouse IgG antibody ( 1/100 dilution, Beckman Coulter). After washings, the fluorescence of the cells was analyzed by flow cytometry on an Accuri-C6 flow cytometer (BD Biosciences).
The delta of MFI, representing the difference between the intensity measured with the tested antibody and the intensity in the absence of antibody, was calculated for each antibody concentration and the values were plotted against the antibody concentrations. The EC50 values were then calculated by using a nonlinear regression analysis model of the GraphPad Prism software.

[3] = target: T2, human CD47 (hCD47) expressed on cells; assay: cell-based or functional assay
[4] = target: T1, hu-sCD47-6His; extracellular domain of …; assay: SPR Biacore T200, antibody captured, hCD47-his analyte; exponent printed without minus sign, read as 10^-8
From the text: An anti-human or anti-mouse IgG (Fc) was first immobilized on the surface of Serie S Sensor Chips CM5 using the human or mouse antibody capture and amine coupling kits, following the manufacturer's instructions (GE Healthcare). […] The mouse, chimerized or humanized antibodies to be tested were then captured onto the appropriate anti-mouse or anti-human IgG surface in all flow cells except flow cell 1 used as control, at concentration and contact time adjusted so that ˜300 RU were captured on the surface. Binding kinetics were studied by passing increasing concentrations of hCD47-his in a series of five 10 minute injections through all flow cells at a rate of 30 μL/min. […] Following the final injection, buffer was passed across each flow cell for 60 minutes (mouse) or 30 minutes (human) to monitor the dissociation of bound antigen. Regeneration of the binding surface was carried out at the end of the cycle by flowing 3 M MgCl₂ for 60 s at 20 μL/min followed by 10 mM glycine-HCl, pH 1.7 for 180 s at 10 μl/min (for human) or by flowing 10 mM glycine-HCl, ph 1.7 for 360 s at 10 μl/min (for mouse). A second cycle with the same antibodies but no antigen was run as a control. Kinetics binding constants were estimated by non-linear fitting of the sensogram data to the 1:1 binding model provided by the Biacore T200 evaluation software.

[5] = target: T3, mouse CD47 (mCD47) expressed on CHO cells (mouse, UniProt Q61735 19-303); assay: flow cytometry, CHO-mCD47 cells
T3 construct: whole, on cells; also called CHO-mCD47
T3 sequence (looked up): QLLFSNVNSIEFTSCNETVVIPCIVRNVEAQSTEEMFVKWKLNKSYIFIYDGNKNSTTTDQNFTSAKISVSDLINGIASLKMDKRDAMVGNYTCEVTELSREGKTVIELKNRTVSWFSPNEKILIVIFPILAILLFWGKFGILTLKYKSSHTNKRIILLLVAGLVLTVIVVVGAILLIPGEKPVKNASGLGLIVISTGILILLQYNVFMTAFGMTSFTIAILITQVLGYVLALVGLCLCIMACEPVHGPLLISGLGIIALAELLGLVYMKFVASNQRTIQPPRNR

[6] = target: T2, human CD47 (hCD47) expressed on cells; assay: flow cytometry, hCD47-CHO cells, competition with His-hSIRPα
Method: (§1) Human CD47-transfected cells (3×10⁵ cells/well of 96-well plate) were first incubated at +4° C. for 30 minutes with serial dilutions of anti-CD47 antibodies or isotype control antibody (in mIgG2a or mIgG1 format). […] The percentage inhibition was plotted against antibody concentration and the IC50 values were calculated using a nonlinear regression analysis model of the GraphPad Prism software.

[7] = target: T2, human CD47 (hCD47) expressed on cells; assay: flow cytometry, hCD47-CHO cells, competition with His-hSIRPα; upper end tied to candidate 33 by Table 5
Method: as §1

[8] = target: T2, human CD47 (hCD47) expressed on cells; assay: flow cytometry, hCD47-CHO cells, competition with His-hSIRPα; lower end tied to candidate 26 by Table 5
Method: as §1

[9] = target: T2, human CD47 (hCD47) expressed on cells; assay: flow cytometry, CD47-transfected CHO cells

B1: Candidate 22 (VL008-AL13-8G5-8K3), mouse IgG (antibody, V domains shown)
VH: QVQLQQPGAELVKPGASVKLSCKASGYTFTTYWMHWVKQRPGQGLEWIGMIHPNSGTTNYNEKFKSKATLTVDKSSSSTYMQLSSLTSEDSAVYYCTRSHYYDGHFSYWGQGTLVTVSA
VL: DIVMSQSPSSLAVSAGEKVTMSCKSSQSLLNSRTRKNYLAWYQQKPGQSPKLLIYWASTRESGVPDRFTGSGSGTDFTLTISSVQAEDLAVYYCKQSYNLWTFGGGTRLEIK
notes: Recombinant mouse IgG2a or mIgG1 format, by assay; also called antibody 22
- koff [1]: 0.000325 s⁻¹
- kon [1]: 20700 M⁻¹ s⁻¹
- EC50 [2]: 0.136 µg/mL
- Phagocytic index, Raji cells and human macrophages, antibody at 0.125 µg/mL [3]: 106 Raji cells ingested per 100 macrophages
- Kd [4]: 15.7 nM
- binding result [5]: no binding (tested: 7.3 µg/mL highest concentration)
- IC50 [6]: 0.482 µg/mL

B3: Candidate 26 (VT008-AL6-10G3-10K1), mouse IgG (antibody, V domains shown)
VH: QVQLQQPGPELVKPGASVKLSCKASGYTFTNYWIHWLNQRPGRGLEWIGRIDPNSGGTKYNEKFKSKAILTVDKSSSTTYMQLSSLTSEDSAVYYCARGGYTMDYWGQGTSVTVSS
VL: DVVMPQTPLSLPVSLGDHASISCRSSQSLLHSNGNTYLHWYLQKPGQSPKLLIYKVSYRFSGVPDRISGSGSGTDFTLKISRVEAEDLGVYFCFQSTHVPWTFGGGTKLEIK
notes: Recombinant mouse IgG2a or mIgG1 format, by assay
- Kd [1]: 1.87 nM
- koff [1]: 0.000372 s⁻¹
- kon [1]: 200000 M⁻¹ s⁻¹
- EC50 [2]: 0.07 µg/mL
- Phagocytic index, Raji cells and human macrophages, antibody at 0.125 µg/mL [3]: 85.3 Raji cells ingested per 100 macrophages
- IC50 [6]: 0.359 µg/mL
- IC50 [8]: 2.4 nM

The next lines start with results.

- Kd [1]: 0.898 nM
- koff [1]: 6.7e-05 s⁻¹
- kon [1]: 74600 M⁻¹ s⁻¹
- EC50 [2]: 0.112 µg/mL
- Phagocytic index, Raji cells and human macrophages, antibody at 0.125 µg/mL [3]: 71.4 Raji cells ingested per 100 macrophages
- IC50 [7]: 7.3 nM
- IC50 [6]: 1.11 µg/mL
B2: Candidate 33 (VL008-AL17-8G5-8K7), mouse IgG (antibody, V domains shown)
VH: LVQLQQSGPELVKPGTSVKISCRSSGYTFTDYYINWVQQRPGQGLEWVGWIFPGSGLTYYNKKFKGKATLSVDKSSNTAYMLLSSLTSEDSAVYFCARPYYGSRWDYTMDYWGQGTSVTVSS
VL: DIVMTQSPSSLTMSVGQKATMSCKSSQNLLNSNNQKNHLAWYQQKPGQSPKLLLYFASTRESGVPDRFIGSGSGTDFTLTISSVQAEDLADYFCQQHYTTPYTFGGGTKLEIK
notes: as for B3
- binding result [5]: no binding (tested: 7.3 µg/mL highest concentration)

- binding result [9]: binds
B4: Candidate 29 (VT008-AL6-20G7-20K7), mouse IgG (antibody, V domains shown)
VH: QVQLQQSGTELAKPGASVKLSCKASGYTFINYWIYWVKERPGQVLEWIGYINPRSDDTKYNQKFRDRATLTADKSSTTAYLQLNSLTNDDSALYYCARGGFTMDFWGQGTSVTVSS
VL: B3 VL with P5T, H18Q, K50N, I67F, F94S, S96G, W101Y
